Tests used:
PpTCP18 [1] = target: T1, PpTCP18 (Prunus persica, UniProt A0A251PBZ8 1-468); assay: EMSA; weakened by 100-fold unlabeled probe; Thermo Scientific EMSA kit, manufacturer's instructions; buffer, salt, pH and temperature not stated; settings: protein: recombinant; tags: MBP; chain copies: 2; label: 5' biotin; blunt
T1 sequence: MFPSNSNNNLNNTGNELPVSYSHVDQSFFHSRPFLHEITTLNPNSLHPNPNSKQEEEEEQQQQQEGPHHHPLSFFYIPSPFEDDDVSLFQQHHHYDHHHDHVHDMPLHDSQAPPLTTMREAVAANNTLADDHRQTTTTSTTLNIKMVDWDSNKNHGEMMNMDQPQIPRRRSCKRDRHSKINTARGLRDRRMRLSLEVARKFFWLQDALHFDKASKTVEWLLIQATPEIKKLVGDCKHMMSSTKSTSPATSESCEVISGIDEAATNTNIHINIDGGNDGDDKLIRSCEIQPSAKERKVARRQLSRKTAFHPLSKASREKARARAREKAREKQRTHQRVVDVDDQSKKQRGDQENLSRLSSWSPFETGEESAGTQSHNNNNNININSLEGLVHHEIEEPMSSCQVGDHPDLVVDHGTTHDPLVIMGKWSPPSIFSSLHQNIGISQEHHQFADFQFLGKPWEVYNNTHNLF

PpTCP18 [2] = target: T1, PpTCP18; assay: EMSA; Thermo Scientific EMSA kit, manufacturer's instructions; buffer, salt, pH and temperature not stated; settings: protein: recombinant; tags: MBP; chain copies: 2; label: 5' biotin; blunt

B1: PpMAX4 promoter probe (dsDNA)
DNA 1: ATATTGTAATTTTTCACTGGCATACTGGTCCCTAATCACCAATTAACGCAACAT
DNA 2: ATGTTGCGTTAATTGGTGATTAGGGACCAGTATGCCAGTGAAAAATTACAATAT
**Q.** Does B1 bind (PpTCP18 [1])?
**A.** binds

B2: PpMAX4 mutated probe (GGTCCC to AAAAAA) (dsDNA)
DNA 1: ATATTGTAATTTTTCACTGGCATACTAAAAAATAATCACCAATTAACGCAACAT
DNA 2: ATGTTGCGTTAATTGGTGATTATTTTTTAGTATGCCAGTGAAAAATTACAATAT
**Q.** Does B2 bind (PpTCP18 [2])?
**A.** no binding

B3: PpLBO1 promoter probe (dsDNA)
DNA 1: GTAAATACTCCAAACCATTACACTAGTGGGTCCTTTACTAATTACATTGTTTTAA
DNA 2: TTAAAACAATGTAATTAGTAAAGGACCCACTAGTGTAATGGTTTGGAGTATTTAC
**Q.** Does B3 bind (PpTCP18 [1])?
**A.** binds

B4: PpLBO1 mutated probe (GGGTCC to AAAAAA) (dsDNA)
DNA 1: GTAAATACTCCAAACCATTACACTAGTAAAAAATTTACTAATTACATTGTTTTAA
DNA 2: TTAAAACAATGTAATTAGTAAATTTTTTACTAGTGTAATGGTTTGGAGTATTTAC
**Q.** Does B4 bind (PpTCP18 [2])?
**A.** no binding

B5: PpMAX3 promoter probe (dsDNA)
DNA 1: CGTAACCCTCCATTTAAAAAAGTGGGTCCCAAATCCCAAAGCATGAGTGGATGGAGAGGAA
DNA 2: TTCCTCTCCATCCACTCATGCTTTGGGATTTGGGACCCACTTTTTTAAATGGAGGGTTACG
**Q.** Does B5 bind (PpTCP18 [1])?
**A.** binds
